Measured values taken from patent publication US20030028002A1, “Cyclin D binding factor, and uses thereof” (published 2003).

B1: cyclin D2 (other, mouse, UniProt P30280 1-289, looked up)
chain: MELLCCEVDPVRRAVPDRNLLEDRVLQNLLTIEERYLPQCSYFKCVQKDIQPYMRRMVATWMLEVCEEQKCEEEVFPLAMNYLDRFLAGVPTPKTHLQLLGAVCMFLASKLKETIPLTAEKLCIYTDNSVKPQELLEWELVVLGKLKWNLAAVTPHDFIEHILRKLPQQKEKLSLIRKHAQTFIALCATDFKFAMYPPSMIATGSVGAAICGLQQDDEVNTLTCDALTELLAKITHTDVDCLKACQEQIEALLLNSLQQFRQEQHNAGSKSVEDPDQATTPTDVRDVDL
B2: cyclin D3 (other, mouse, UniProt P30282 1-292, looked up)
chain: MELLCCEGTRHAPRAGPDPRLLGDQRVLQSLLRLEERYVPRASYFQCVQKEIKPHMRKMLAYWMLEVCEEQRCEEDVFPLAMNYLDRYLSCVPTRKAQLQLLGTVCLLLASKLRETTPLTIEKLCIYTDQAVAPWQLREWEVLVLGKLKWDLAAVIAHDFLALILHRLSLPSDRQALVKKHAQTFLALCATDYTFAMYPPSMIATGSIGAAVLGLGACSMSADELTELLAGITGTEVDCLRACQEQIEAALRESLREAAQTAPSPVPKAPRGSSSQGPSQTSTPTDVTAIHL

Key:
[1] = target: B2; test: GST pull-down of 35S-labelled in vitro translated cyclin on glutathione-Sepharose, gel autoradiography
Procedure: (§1) Because DMP1 interacted with cyclin D2 in yeast, the ability of a glutathione S-transferase (GST)-DMP1 fusion protein to bind D-type cyclins in vitro is examined. GST is fused to residues 176-761 of DMP1 (in lieu of GAL4 in the original cDNA clone), and the bacterially synthesized recombinant protein is incubated with [³⁵S]methionine-labeled D-type cyclins prepared by transcription and translation in vitro. As a positive control, GST-RB which can specifically bind D-type cyclins in this assay is used (15). Bound cyclins recovered on washed glutathione-Sepharose beads are analyzed by electrophoresis on denaturing gels. […] GST-DMP1 is less efficient than GST-RB in binding cyclins D2 and D3 (˜4-fold less binding), and under these conditions, an interaction with D1 is not detected (lanes 3, 7, 11). No labeled proteins bind to GST alone (lanes 4, 8, 12), and neither cyclin A nor cyclin E bind to GST-RB or to GST-DMP1. A cyclin D2 mutant disrupted in an amino-terminal Leu-X-Cys-X-Glu pentapeptide that is required for high efficiency GST-RB binding is not detectably compromised in its interaction with GST-DMP1 (negative data not shown); in agreement, DMP1 bears no homology to RB or to RB-related family members (p107 and p130).

[2] = target: B1; test: as above
Procedure: as §1

[3] = target: T1, DMP1 expressed in 293T cells (Mus musculus) (UniProt Q8CE22); test: cell_activity
T1 sequence: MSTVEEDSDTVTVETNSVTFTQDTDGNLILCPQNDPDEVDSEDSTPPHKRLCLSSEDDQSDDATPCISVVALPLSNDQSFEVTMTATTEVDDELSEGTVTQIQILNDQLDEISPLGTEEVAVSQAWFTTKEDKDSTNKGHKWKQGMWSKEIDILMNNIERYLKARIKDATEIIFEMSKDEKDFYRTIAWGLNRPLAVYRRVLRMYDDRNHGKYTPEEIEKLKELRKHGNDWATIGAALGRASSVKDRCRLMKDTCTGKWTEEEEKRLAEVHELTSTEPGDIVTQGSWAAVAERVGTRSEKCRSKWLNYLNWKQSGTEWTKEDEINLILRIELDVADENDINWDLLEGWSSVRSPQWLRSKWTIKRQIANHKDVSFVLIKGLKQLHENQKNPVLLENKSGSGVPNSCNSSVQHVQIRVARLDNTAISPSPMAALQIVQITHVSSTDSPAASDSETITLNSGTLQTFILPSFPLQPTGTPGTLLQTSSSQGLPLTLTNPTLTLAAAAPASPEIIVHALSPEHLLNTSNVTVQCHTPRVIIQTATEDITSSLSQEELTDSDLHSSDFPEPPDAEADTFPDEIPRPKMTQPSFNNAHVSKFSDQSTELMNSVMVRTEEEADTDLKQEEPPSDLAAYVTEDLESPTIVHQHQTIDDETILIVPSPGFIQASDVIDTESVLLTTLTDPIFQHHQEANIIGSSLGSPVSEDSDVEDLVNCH

[4] = target: T2, DMP1 M11 (K319E) K319E (Mus musculus) (UniProt Q8CE22); test: EMSA; details: very faint band
T2 sequence: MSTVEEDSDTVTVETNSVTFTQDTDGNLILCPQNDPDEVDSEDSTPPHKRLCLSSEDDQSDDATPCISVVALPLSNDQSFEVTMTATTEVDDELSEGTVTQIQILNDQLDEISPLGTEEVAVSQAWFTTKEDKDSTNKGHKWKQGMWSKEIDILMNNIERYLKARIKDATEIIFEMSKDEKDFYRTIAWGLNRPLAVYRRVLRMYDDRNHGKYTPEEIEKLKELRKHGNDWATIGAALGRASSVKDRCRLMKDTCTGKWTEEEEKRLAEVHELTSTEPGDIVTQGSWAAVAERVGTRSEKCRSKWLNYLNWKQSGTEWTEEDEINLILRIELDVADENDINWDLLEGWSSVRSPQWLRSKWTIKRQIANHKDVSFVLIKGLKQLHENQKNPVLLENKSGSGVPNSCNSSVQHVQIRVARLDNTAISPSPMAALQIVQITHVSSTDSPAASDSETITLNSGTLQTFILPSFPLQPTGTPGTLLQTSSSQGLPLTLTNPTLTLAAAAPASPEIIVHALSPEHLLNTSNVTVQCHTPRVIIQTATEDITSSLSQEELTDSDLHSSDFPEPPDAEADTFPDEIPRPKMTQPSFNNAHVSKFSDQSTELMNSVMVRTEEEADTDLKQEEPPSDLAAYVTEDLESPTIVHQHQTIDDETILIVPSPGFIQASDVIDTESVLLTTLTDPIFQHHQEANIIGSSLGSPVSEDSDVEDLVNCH

[5] = target: T3, DMP1 M11 (K319E) expressed in NIH-3T3 cells K319E (Mus musculus) (UniProt Q8CE22); test: cell_activity; details: BS2 luciferase reporter
T3 sequence: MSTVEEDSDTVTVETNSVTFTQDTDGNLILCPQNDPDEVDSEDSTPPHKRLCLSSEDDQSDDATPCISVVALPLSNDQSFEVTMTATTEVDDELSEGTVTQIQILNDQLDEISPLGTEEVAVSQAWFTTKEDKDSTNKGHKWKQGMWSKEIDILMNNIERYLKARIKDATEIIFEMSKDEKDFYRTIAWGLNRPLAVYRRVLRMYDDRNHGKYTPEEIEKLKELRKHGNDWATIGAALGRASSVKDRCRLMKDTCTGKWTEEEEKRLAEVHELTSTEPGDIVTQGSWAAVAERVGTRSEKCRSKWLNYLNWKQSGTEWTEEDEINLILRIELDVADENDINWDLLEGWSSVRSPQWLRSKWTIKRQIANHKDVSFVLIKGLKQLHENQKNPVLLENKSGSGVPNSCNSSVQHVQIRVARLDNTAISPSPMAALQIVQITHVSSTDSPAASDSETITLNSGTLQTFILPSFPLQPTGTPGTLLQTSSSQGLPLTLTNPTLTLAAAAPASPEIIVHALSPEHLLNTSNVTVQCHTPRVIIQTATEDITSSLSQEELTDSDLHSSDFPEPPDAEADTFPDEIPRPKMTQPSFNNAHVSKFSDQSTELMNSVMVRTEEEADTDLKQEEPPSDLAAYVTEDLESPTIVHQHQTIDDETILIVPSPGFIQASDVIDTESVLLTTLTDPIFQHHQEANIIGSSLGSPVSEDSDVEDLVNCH

[6] = target: T4, DMP1 expressed in NIH-3T3 cells (Mus musculus) (UniProt Q8CE22); test: cell_activity; details: BS2 luciferase reporter
T4 sequence: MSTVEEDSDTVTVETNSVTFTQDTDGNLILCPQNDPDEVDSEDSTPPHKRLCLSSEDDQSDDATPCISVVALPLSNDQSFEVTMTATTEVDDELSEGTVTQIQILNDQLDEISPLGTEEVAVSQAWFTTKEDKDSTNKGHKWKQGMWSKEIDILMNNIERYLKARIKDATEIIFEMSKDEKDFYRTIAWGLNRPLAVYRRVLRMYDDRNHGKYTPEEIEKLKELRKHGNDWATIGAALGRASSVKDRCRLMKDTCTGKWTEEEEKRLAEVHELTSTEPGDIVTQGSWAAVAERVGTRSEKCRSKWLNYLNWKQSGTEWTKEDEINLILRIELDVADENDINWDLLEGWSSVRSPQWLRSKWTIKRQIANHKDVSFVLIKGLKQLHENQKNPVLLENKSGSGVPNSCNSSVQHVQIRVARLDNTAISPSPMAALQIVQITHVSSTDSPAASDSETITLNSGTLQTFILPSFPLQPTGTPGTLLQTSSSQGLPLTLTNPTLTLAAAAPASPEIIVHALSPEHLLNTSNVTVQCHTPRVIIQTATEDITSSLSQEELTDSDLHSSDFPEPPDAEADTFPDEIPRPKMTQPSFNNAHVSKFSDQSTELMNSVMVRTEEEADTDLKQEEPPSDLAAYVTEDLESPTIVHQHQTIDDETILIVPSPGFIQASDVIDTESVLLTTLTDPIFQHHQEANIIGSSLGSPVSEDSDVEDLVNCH

[7] = target: B2; test: coinfected Sf9 cells, coprecipitation
[8] = target: B1; test: coinfected Sf9 cells, coprecipitation
[9] = target: T5, DMP1 (cyclin D-binding myb-like protein), murine, full length (mouse, UniProt Q8CE22 1-761, multiple phosphorylated forms when made in Sf9 cells (sites not given)); test: cell-based or functional assay
T5 sequence: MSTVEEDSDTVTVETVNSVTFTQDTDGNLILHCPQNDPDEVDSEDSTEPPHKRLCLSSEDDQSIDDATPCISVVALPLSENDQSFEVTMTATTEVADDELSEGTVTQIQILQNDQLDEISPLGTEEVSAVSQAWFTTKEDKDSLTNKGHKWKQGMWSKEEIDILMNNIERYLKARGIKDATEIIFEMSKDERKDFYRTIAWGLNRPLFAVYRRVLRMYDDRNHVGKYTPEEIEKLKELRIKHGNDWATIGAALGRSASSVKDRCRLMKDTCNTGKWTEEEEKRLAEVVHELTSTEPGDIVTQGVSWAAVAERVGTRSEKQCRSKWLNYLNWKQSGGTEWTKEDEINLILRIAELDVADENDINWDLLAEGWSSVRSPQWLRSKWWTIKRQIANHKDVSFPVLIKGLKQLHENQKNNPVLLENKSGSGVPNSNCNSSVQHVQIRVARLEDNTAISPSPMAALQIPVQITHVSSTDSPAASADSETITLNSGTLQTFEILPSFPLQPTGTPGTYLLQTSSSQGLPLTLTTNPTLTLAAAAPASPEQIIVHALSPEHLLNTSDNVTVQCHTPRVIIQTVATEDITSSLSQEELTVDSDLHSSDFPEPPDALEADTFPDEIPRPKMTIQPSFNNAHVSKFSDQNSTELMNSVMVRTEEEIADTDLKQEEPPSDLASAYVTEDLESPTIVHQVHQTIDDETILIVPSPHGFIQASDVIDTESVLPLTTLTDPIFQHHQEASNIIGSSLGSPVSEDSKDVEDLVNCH

[10] = target: D-type cyclins; test: coexpression in Sf9 cells, coprecipitation (FIG. 3)

Molecule: GST-RB fusion protein (from UniProt P08515 1-218)
- percent of the total input protein bound [1]: 20%
- percent of the total input protein bound [2]: 20%

Molecule: AATTGACCCGGATGTAGGTACGC (double strand) [BS1]
- activity (fold activation) ([3]; 6x BS1 luciferase reporter): 7

Molecule: AATTGACCCGTATGTAGGTACGC (double strand) [BS2]
- binding signal (% of wild type) [4]: 2
- activity (fold activation) [5]: 1.1
- activity (fold activation) [6]: 8.4
- activity (fold activation) ([3]; 8x BS2 luciferase reporter): 20

Molecule: RB (retinoblastoma protein) coexpressed in Sf9 cells
- binding ratio of cyclin to RB [7]: 1 ratio (1:1)
- binding ratio of cyclin to RB [8]: 1 ratio (1:1)

Molecule: B1
- Luciferase Activity (DMP1 transactivation of a DMP1-responsive reporter; DMP1 alone 8.4, no DMP1 1.0) [9]: 1.6 relative to empty expression vector = 1.0

Molecule: B2
- Luciferase Activity (DMP1 transactivation of a DMP1-responsive reporter; DMP1 alone 8.4, no DMP1 1.0) [9]: 1.6 relative to empty expression vector = 1.0

B3: cyclin D1 (other, mouse, UniProt P25322 1-295, looked up)
chain: MEHQLLCCEVETIRRAYPDTNLLNDRVLRAMLKTEETCAPSVSYFKCVQKEIVPSMRKIVATWMLEVCEEQKCEEEVFPLAMNYLDRFLSLEPLKKSRLQLLGATCMFVASKMKETIPLTAEKLCIYTDNSIRPEELLQMELLLVNKLKWNLAAMTPHDFIEHFLSKMPEADENKQTIRKHAQTFVALCATDVKFISNPPSMVAAGSVVAAMQGLNLGSPNNFLSCYRTTHFLSRVIKCDPDCLRACQEQIEALLESSLRQAQQNVDPKATEEEGEVEEEAGLACTPTDVRDVDI
- Luciferase Activity (DMP1 transactivation of a DMP1-responsive reporter; DMP1 alone 8.4, no DMP1 1.0) [9]: 1.5 relative to empty expression vector = 1.0

B4: DMP1 (cyclin D-binding myb-like protein), murine, full length (protein)
chain: MSTVEEDSDTVTVETVNSVTFTQDTDGNLILHCPQNDPDEVDSEDSTEPPHKRLCLSSEDDQSIDDATPCISVVALPLSENDQSFEVTMTATTEVADDELSEGTVTQIQILQNDQLDEISPLGTEEVSAVSQAWFTTKEDKDSLTNKGHKWKQGMWSKEEIDILMNNIERYLKARGIKDATEIIFEMSKDERKDFYRTIAWGLNRPLFAVYRRVLRMYDDRNHVGKYTPEEIEKLKELRIKHGNDWATIGAALGRSASSVKDRCRLMKDTCNTGKWTEEEEKRLAEVVHELTSTEPGDIVTQGVSWAAVAERVGTRSEKQCRSKWLNYLNWKQSGGTEWTKEDEINLILRIAELDVADENDINWDLLAEGWSSVRSPQWLRSKWWTIKRQIANHKDVSFPVLIKGLKQLHENQKNNPVLLENKSGSGVPNSNCNSSVQHVQIRVARLEDNTAISPSPMAALQIPVQITHVSSTDSPAASADSETITLNSGTLQTFEILPSFPLQPTGTPGTYLLQTSSSQGLPLTLTTNPTLTLAAAAPASPEQIIVHALSPEHLLNTSDNVTVQCHTPRVIIQTVATEDITSSLSQEELTVDSDLHSSDFPEPPDALEADTFPDEIPRPKMTIQPSFNNAHVSKFSDQNSTELMNSVMVRTEEEIADTDLKQEEPPSDLASAYVTEDLESPTIVHQVHQTIDDETILIVPSPHGFIQASDVIDTESVLPLTTLTDPIFQHHQEASNIIGSSLGSPVSEDSKDVEDLVNCH
modifications: multiple phosphorylated forms when made in Sf9 cells (sites not given)
- percent of DMP1 molecules in stable complexes with D-type cyclins [10]: < 15%
